Source: the DeepSol protein solubility set

experiment: soluble on expression in E. coli; label from the status in PepcDB or PDB records

For “MSLKIAVVQFPGSNCERETMLAVQRAGMTPVEFLWNDSSQKLREMDGYIIIGGFSYEDRSRAGIIAALDPVMKEIKLQSELGKPVLGICNGAQILVETGLVPGLKNYQIGMALTENKRIQDGKILGTGFYNSWIHMRTGDRVRQNAFTRYLSKDSVLSIPAAHAEGRFVMPVKLLQEIEEEGLNAFQYCDAQGNRDDNFPVNPNGSLRNIAAIINKAGNVMAIMPHPERTFAGDPIFHSMKEYIKEKKTFKQQTLSYQPEPVKIIPYDKKDNAHELIVKLIITDNAALTVQNTLRQLGIPVTVNRMMYWHVDTNFPETIEKIKQTGVLYNDRKEYLVTSEHIFSSAAKAFLVKSKDDMIGQQKLQMLRDHFSIDGVDAIHHGVLWMFSSENVKIQELAESILATNIIFNPNAHICYEYQCPEGHHHHHH”, which “soluble on expression in E. coli” value is on record?
The value was “soluble”.

For “MAIPKLQAYALPESHDIPQNKVDWAFEPQRAALLIHDMQDYFVSFWGENCPMMEQVIANIAALRDYCKQHNIPVYYTAQPKEQSDEDRALLNDMWGPGLTRSPEQQKVVDRLTPDADDTVLVKWRYSAFHRSPLEQMLKESGRNQLIITGVYAHIGCMTTATDAFMRDIKPFMVADALADFSRDEHLMSLKYVAGRSGRVVMTEELLPAPIPASKAALREVILPLLDESDEPFDDDNLIDYGLDSVRMMALAARWRKVHGDIDFVMLAKNPTIDAWWKLLSREVK”, which “soluble on expression in E. coli” value is on record?
Its value is “not soluble”.

Which “soluble on expression in E. coli” value does the source give for “MNKEEQVMMSLRELFNKMAWLNKLKMEDSLKGYKPSEVHYIECIGKNVDSNVTKLAKSLYMTRGAISKMTKKLIEKNIVESYQKADNKKEIYFRLTEKGHEIYKLHENLHKEFQERDKVVFEQVTDEQFESMLSFIEKYSKHLDSEIKKLGIDTKLE” here?
Its value is “not soluble”.

For “MVQDQIRYDILVQDALRGVIRKVLSEVAKAGLPGSHHFFITFLTNAPGVKISTRLKSRYPEQMTIVLQHQFRDLNVSETAFEVTLSFREVSEKLVIPFHSIQVFYDPVAAFEAAFDLPSNLNSKEGENLENIASTPVILSDTQKKEKKFPKEQISKTNKDSSNNDTKQSADVVSLDSFRKK”, which “soluble on expression in E. coli” value is on record?
Its value is “not soluble”.

Which “soluble on expression in E. coli” value does the source give for “LQEPMYVYSHDGLLIAIFGEIRRYPVQIKEVPEQLKQAFLATEDARFYEHSGIDYKGIARAIWLLATTNEKRVPGGSTITQQVARQFFLNSEYSYKRKLAEILLARKIESQLKKDEILELYLNKSFFGNRAYGIAAAAEFYYGKKLNELNLDEMASLAGIPKFPSS” here?
The value was “not soluble”.

Which “soluble on expression in E. coli” value does the source give for “GPGSMLRLSASRRSAQNILHDIQAAVESRSIMATSSFAQRRSFLVALSEELHRNSEHIIHANRRDCDLFGRQQQQRGTPSVTIPPTLPSTSAATSLQPSSSLHGGPAGYPPFLGRPGHRVGDAQGISVAAENPATATPAPNAAEGSGASSPRRQSSLDYVAGASPVGSPDPNGAGGAAAGGRAAASPAGAGPALGETAAGSRATSTSGTAAPVSPSRWAARASSASLQLVPTAVSGHATRTEAGGGGGHLLITPDNHFLISPLRLDKLHTTIEYLLCQPDPIAIPPSCWLHDSAEGDSGAAANSLREQGSLGAAPGHNSPPPPSAAGSHAGCGRCTRRTDRLEVYELSVPLGMVGILSRFRPRISIDTVAMGLFAGNTVLLDGGVSLYNTNMALMSSVRRALTTAGLSPSAVVCVESYDAAHRSTSEWLQLSDCVDLAVVCGPPKLYQFASRYSTIPLMRATGQFSSVYVDQSASFEVALEVILNSKFQKLGAANAVTTVIVHSDFPRYTELVLALAAEGAVLLGDVTAQERVPDCVLELASEEEYQGLSQYGLRDAARTLCLKTVDSLAQALFFIESFGSKQSDCIVATDLEVCATYCRHVDTAVALVNASTRLSSGVPLGCGVDFAISTSKTHCRGPLTVEMMTTRKLVARSLSAHHGALR” here?
The value was “not soluble”.

Which “soluble on expression in E. coli” value does the source give for “GPGSMQPRKTVKKVDVEPSPEEDAELLPHLKVSAKWSERAANNGKSLSQVQFLLGALGKQLEDCNKELASVYANADLLSSLRITEYRQRNTPGGLLTPTRKARTKRNASTRPVARQQLDENSTEALIAAMDEKKRARVTAALIAFFKRDMQEQNSPAYQNASTPVPQGANHSSTRTSQTLGRIPSANSHTMLCESNKGNQPSCSNGNELPTLLSETQQQQLRRHRDIPPELWDEMAKLRLRRLSLEEKIGSLLSNINAQTERFGLLMEVQGVNSYSTESVNRAIEMIRQKRA” here?
Its value is “soluble”.

Which “soluble on expression in E. coli” value does the source give for “MGSSHHHHHHSSGLVPRGSHMKPVLTVYTYDSFAADWGPGPVVKKAFEADCNCELKLVALEDGVSLLNRLRMEGKNSKADVVLGLDNNLLDAASKTGLFAKSGVAADAVNVPGGWNNDTFVPFDYGYFAFVYDKNKLKNPPQSLKELVESDQNWRVIYQDPRTSTPGLGLLLWMQKVYGDDAPQAWQKLAKKTVTVTKGWSEAYGLFLKGESDLVLSYTTSPAYHILEEKKDNYAAANFSEGHYLQVEVAARTAASKQPELAQKFLQFMVSPAFQNAIPTGNWMYPVANVTLPAGFEKLTKPATTLEFTPAEVAAQRQAWISEWQRAVSR” here?
The value was “soluble”.

For “MEQLQVGQVTLTWLNGGVTHLDGGAMFGVVPKPLWSKKYPPNDQNQIELRTDPILVEAGGKRLLIESGIGNGKLTDKQKRNFGVTEESSLDESLAALGLTRGDIDIVIMTHLHFDHACGLTVWEDGRLVPAFPRAAIITSDVEWEEMRAPNIRSRNTYWKENWEPIAEQVIPFTKETEVVSGIRLIHTGGHSAGHAIVLIESDGEMAIHLGDLLGTHAHQNVLWVMAYDDYPMDSIFAKQRWLPYGIERNAWFTFYHDAYYRAVKWREDGTIAEQVKRNRPTLLEHHHHHH”, which “soluble on expression in E. coli” value is on record?
The value was “soluble”.

For “MSLRYTNSHLEDWIENLYKKIDITEPEQINFERIAEALDIRLSFKPVTSFALKHSGIYNICLDSRKSRTEQWYDFAHEFCHIYRHEGDKKTMPATWTDYLDWQSNYFTYHFCIPTCMLRNINLPYIQSHAIENVAWLFKVSPSFAKKRLSIYYRKLTQHLFSQTVTGNLCPPFLEGHHHHHH”, which “soluble on expression in E. coli” value is on record?
The value was “not soluble”.

For “MDSGLKALEAVLAIARKGSFRAAALDLGVSTTALSHTVARLEAGLGVRLFHRTTRSVALTEAGREFVARIAPALTEIRAALETVRSQRATPSGMLRINASVQAGRAVAPLVLAFLRRYPEMRVDLVTEGRLLDIVAEGFDMGIRPADLVPRDMIALPLGLPVRHAVVASPDWLVRHPEPRSPADLDPDACLRVRLPNGALLRWPFQKDGVPLPFEASGRLTVDEAAIARAAVLDGAGIGYFIEADVAEDIAAGRMIRLLEDWTPNRPGFSLYYSGRRNPSAGFTAFLAMAREREAA”, which “soluble on expression in E. coli” value is on record?
Its value is “not soluble”.

With “MKKFVALILGCITICGLYGCSKNSSQIINKTFSLPAYNRIEIDSANDDIKIISGKHYRVRYVGQNKLKPTIKVKNGVLVIDSPKKSTIINSNIFGSKNIKQTLTIEMPKKELKYLSVDTSNGDVSVDYLEVQKGTIDTSNGNVNLKNLITKKDFEIDTSNGTVKVGKSNVEGYALSTSNGSIVVKGENKSDEFEKNTSAKNVLSIDTSNGNIYVNLEHHHHHH” as the sequence, how does the “soluble on expression in E. coli” value read?
The value was “not soluble”.

Which “soluble on expression in E. coli” value does the source give for “MSRTEGSHEAEQDLTMIVGTYTSGDSKGLYSFRFNEENGTATALSEAEVENPSYLVPSADGKFIYAVSEFSNEQAAANAFAFNKEEGTFRLLNTQKTGGEDPCYIITNGSNVVTANYSGGSISVFPIDKDGSLLPASEVVKFKGSGADKERQEKPHLHCVRITPDGKYLFADDLGTDQIHKFIVNPNAKADNEDVFLKEGSPASYKVEAGSGPRHLTFAPNGSYAYLINELSGTVIAFEYNDGELKEIQTIAADTVGAKGSGDIHISPDGKFLYASNRLKADGLAIFSIHPENGMLTKVGYQLTGIHPRNFIITPNGKYLLVACRDSNVIQVYERDTDTGLLTDIRKDIKVDKPVCIKFVPLEHHHHHH” here?
The value was “soluble”.

For “MANLDDELALFESELAELEQASSNSEEPASSQTHVGYDNATISAGPTTSESSAATSSAQVIQPSLLAAPPFIPIAATIAVSPFINPALGRLPTMPPVPPSIFMPPQLRAAPIMFPPRVLGIPAPATIEGAPALYETPAVNAIPQELLRTQALQSDIDKMNFKKQTDPFKKKIKEQQAKKKFVRSGGGQVWEDPSLAEWDENDFRVFCGDLGNEVSDELLAKAFRKYPSFQKAKVVRESRTNKSKGYGFVSFRDSEDYVRAMREMDGKYVGNRPIKLRKSAWKERNIDVIKQKRKQKKELGIL”, which “soluble on expression in E. coli” value is on record?
The value was “soluble”.

Which “soluble on expression in E. coli” value does the source give for “MLSRLSSIFRYFGTTSTIATMSPKKVTIIGSGNWGSAIARIVGSTTKSFPDEFDPTVRMWVFEEIVNGEKLSEVINNRHENIKYLPGKVLPNNVVAVTDLVESCEGSNVLVFVVPHQFVKGICEKLVGKIPADTQAISLIKGVSTEKRGGLKLISEEIKEILKIEVSVLMGANLAPEVANDNFCEATIGCKRKAEDGPLLKKLFHTDNFRINVVEDAHTVELCGALKNVVACAAGFTDGLGYGDNTKAAVIRLGLMETTKFVEHYYPGSNLQTFFESCGIADLITTCYGGRNRKVCEAFVKTGKSMAEVEKELLNGQSAQGPLTAEEVYLMMHKTGLDAKFPLFTAVHKICAGEMKPAELVDCLRNHPEHM” here?
Its value is “not soluble”.

For “MGSDKIHHHHHHMRLFSKLFNIRDNTVVERPRSLTGEGIAAKTQTRVAEKISSTPNDTDTVAAPTVDVAALFYSLLFATSHKDTGGIANNLEKRLIGNVESALADPKVIAEKVFKLPHDLIELDKQLANPEVDTEEVIALIKRDPVLSAEVIQLCNAPAFHRGAKDITSLQQAVVILGREQLRRFVSAVKVREVVEIKPIYYRRFGAEVWRHSLQVAYLAAELATEDQDTAFMLGLIHDVGKIAIFQMLLEAFAKAEPGEQPRSWLFRQVMTSKSLILSAVLARSWLLPPLFSRSLAALANPDNMPTEPLPKAIWTANHISECSMLWQAARLKEPQLNELLARIGMDRKTFDPLHEKLILFTR”, which “soluble on expression in E. coli” value is on record?
The value was “not soluble”.

With “MGHHHHHHSHMPKHPSQSTVCQKGTPNSASKTKDKVNKRNERGETRLHRAAIRGDARRIKELISEGADVNVKDFAGWTALHEACNRGYYDVAKQLLAAGAEVNTKGLDDDTPLHDAANNGHYKVVKLLLRYGGNPQQSNRKGETPLKVANSPTMVNLLLGKGTYTSSEESSTESSEE” as the sequence, how does the “soluble on expression in E. coli” value read?
The value was “soluble”.

With “MENLYFQGLEHHHHHHENSSPYTSEHFHYTVTDIKDLTKLGAIYDKTKKYWVYQGKPVMPDQFTFELLDFLHQLTHLSFSKMKALLERSHSPYYMLNRDRTLKNITETCKACAQVNASKS” as the sequence, how does the “soluble on expression in E. coli” value read?
Its value is “soluble”.

With “MKKVAIVGLGWLGMPLAMSLSARGWQVTGSKTTQDGVEAARMSGIDSYLLRMEPELVCDSDDLDALMDADALVITLPARRSGPGDEFYLQAVQELVDSALAHRIPRIIFTSSTSVYGDAQGTVKETTPRNPVTNSGRVLEELEDWLHNLPGTSVDILRLAGLVGPGRHPGRFFAGKTAPDGEHGVNLVHLEDVIGAITLLLQAPKGGHIYNICAPAHPARNVFYPQMARLLGLEPPQFRNSLDSGKGKIIDGSRICNELGFEYQYPDPLVMPLE” as the sequence, how does the “soluble on expression in E. coli” value read?
Its value is “soluble”.

For “MSLYSENDISNSIKNGILYLEDPVNHEWYPHYFVLTSSKIYYSEETSSDQGNEDEEEPKEVSSSTELHSNEKWFHGKLGAGRDGRHIAERLLTEYCIETGAPDGSFLVRESETFVGDYTLSFWRNGKVQHCRIHSRQDAGTPKFFLTDNLVFDSLYDLITHYQQVPLRCNEFEMRLSEPVPQTNAHESKEWYHASLTRAQAEHMLMRVPRDGAFLVRKRNEPNSYAISFRAEGKIKHCRVQQEGQTVMLGNSEFDSLVDLISYYEKHPLYRKMKLRYPINEEALEKIGTAEPDYGALYEGRNPGFYVEANPMPTFKCAVKALFDYKAQREDELTFIKSAIIQNVEKQEGGWWRGDYGGKKQLWFPSNYVEEMVNEGHHHHHH”, which “soluble on expression in E. coli” value is on record?
The value was “soluble”.

For “MGKLYVFDHPLIQHKITYIRDKNTGTKDFRELVDEVASLMAFEITRDLPLKDIEIETPVSKATTKVIAGKKLGLIPILRAGLGMVDGILKLIPAAKVGHVGLYRDPKTLQPVEYYVKLPTDVEERDFIVLDPMLATGGSAAEAINSLKKRGAKQIKLMCIVAAPEGVKVVQEEHPDVDIYVAALDEKLNDHGYVVPGLGDAGDRLFGTK”, which “soluble on expression in E. coli” value is on record?
The value was “not soluble”.
